Results on one molecule are retold here after patent US20250262210A1 (TRUSTEES OF COLUMBIA UNIVERSITY IN THE CITY OF NEW YORK, published 2025).

One assay addresses TRIM16 (human, UniProt O95361 1-564, limits assumed). The experiment in a line: IP/MS, LZTR1 wild type-FLAG, U87. The essentials:
(§1)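 Extracted peptides in 3% acetonitrile/0.1% formic acid ran on a 50 cm C18 column into an Orbitrap Fusion, with MaxQuant identification and spectral counting.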

The next assay addresses T1, RANBP6 (human, UniProt O60518 2-1105).
T1 sequence (looked up): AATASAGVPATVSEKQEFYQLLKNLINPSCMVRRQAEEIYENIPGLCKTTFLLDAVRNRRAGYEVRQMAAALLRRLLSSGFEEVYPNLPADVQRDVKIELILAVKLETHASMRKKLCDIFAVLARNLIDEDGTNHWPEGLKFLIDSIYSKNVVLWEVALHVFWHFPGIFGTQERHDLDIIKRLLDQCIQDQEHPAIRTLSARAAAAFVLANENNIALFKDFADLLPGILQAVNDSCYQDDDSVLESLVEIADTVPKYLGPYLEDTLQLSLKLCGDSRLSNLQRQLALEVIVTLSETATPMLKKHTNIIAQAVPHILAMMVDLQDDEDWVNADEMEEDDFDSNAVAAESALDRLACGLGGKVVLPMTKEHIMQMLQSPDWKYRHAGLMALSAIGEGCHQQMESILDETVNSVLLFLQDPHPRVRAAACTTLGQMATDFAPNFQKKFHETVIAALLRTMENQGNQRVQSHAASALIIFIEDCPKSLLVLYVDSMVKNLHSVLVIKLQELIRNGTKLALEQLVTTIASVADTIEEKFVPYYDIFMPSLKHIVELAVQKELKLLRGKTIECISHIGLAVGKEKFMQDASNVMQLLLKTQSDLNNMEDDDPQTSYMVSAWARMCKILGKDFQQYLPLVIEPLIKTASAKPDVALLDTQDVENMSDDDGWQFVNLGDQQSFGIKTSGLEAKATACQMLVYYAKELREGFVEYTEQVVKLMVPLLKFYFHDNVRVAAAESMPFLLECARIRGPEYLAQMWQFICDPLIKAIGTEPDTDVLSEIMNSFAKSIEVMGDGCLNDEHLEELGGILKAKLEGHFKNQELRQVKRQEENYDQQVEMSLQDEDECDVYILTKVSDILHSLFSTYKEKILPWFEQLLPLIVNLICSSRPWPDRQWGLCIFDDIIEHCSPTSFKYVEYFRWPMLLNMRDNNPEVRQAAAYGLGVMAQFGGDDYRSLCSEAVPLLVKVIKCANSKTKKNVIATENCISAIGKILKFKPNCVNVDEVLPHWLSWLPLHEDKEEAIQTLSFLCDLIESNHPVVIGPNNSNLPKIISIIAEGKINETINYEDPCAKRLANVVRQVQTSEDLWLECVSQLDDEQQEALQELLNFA
The experiment in a line: IP/MS, LZTR1 wild type-FLAG, U87. The essentials:
as §1

B1: LZTR1-FLAG (other, human, UniProt Q8N653 1-840, looked up)
chain: MAGPGSTGGQIGAAALAGGARSKVAPSVDFDHSCSDSVEYLTLNFGPFETVHRWRRLPPCDEFVGARRSKHTVVAYKDAIYVFGGDNGKTMLNDLLRFDVKDCSWCRAFTTGTPPAPRYHHSAVVYGSSMFVFGGYTGDIYSNSNLKNKNDLFEYKFATGQWTEWKIEGRLPVARSAHGATVYSDKLWIFAGYDGNARLNDMWTIGLQDRELTCWEEVAQSGEIPPSCCNFPVAVCRDKMFVFSGQSGAKITNNLFQFEFKDKTWTRIPTEHLLRGSPPPPQRRYGHTMVAFDRHLYVFGGAADNTLPNELHCYDVDFQTWEVVQPSSDSEVGGAEVPERACASEEVPTLTYEERVGFKKSRDVFGLDFGTTSAKQPTQPASELPSGRLFHAAAVISDAMYIFGGTVDNNIRSGEMYRFQFSCYPKCTLHEDYGRLWESRQFCDVEFVLGEKEECVQGHVAIVTARSRWLRRKITQARERLAQKLEQEAAPVPREAPGVAAGGARPPLLHVAIREAEARPFEVLMQFLYTDKIKYPRKGHVEDVLLIMDVYKLALSFQLCRLEQLCRQYIEASVDLQNVLVVCESAARLQLSQLKEHCLNFVVKESHFNQVIMMKEFERLSSPLIVEIVRRKQQPPPRTPLDQPVDIGTSLIQDMKAYLEGAGAEFCDITLLLDGHPRPAHKAILAARSSYFEAMFRSFMPEDGQVNISIGEMVPSRQAFESMLRYIYYGEVNMPPEDSLYLFAAPYYYGFYNNRLQAYCKQNLEMNVTVQNVLQILEAADKTQALDMKRHCLHIIVHQFTKVSKLPTLRSLSQQLLLDIIDSLASHISDKQCAELGADI
notes: Expressed in HEK 293T, HeLa or U87 cells; used as cell lysate; also called LZTR1 wild type-FLAG; LZTR1 WT; not shown: FLAG tag at the C-terminus
For the molecule B1, the binding result with TRIM16 and with RANBP6 was “binds” in each case.
